# Assay results as given in US7351553B2, “BK beta subunits of Slo family potassium channels” (Icagen, Inc., priority 1999, dated 2008).
# Legend:
# Slo-1 = target: T1, Slo-1 (Homo sapiens, UniProt Q12791); experiment: Whole-cell voltage-clamp of membrane currents in HEK293 cells expressing Slo-1 alone; format: cell-based; conditions: 250 ms depolarizing steps from holding potential -80 mV; for inhibition (block) of membrane currents: CTX 100 nM
# T1 construct: expressed in transfected cells; host or cells: HEK293
# T1 sequence (Q12791 whole entry): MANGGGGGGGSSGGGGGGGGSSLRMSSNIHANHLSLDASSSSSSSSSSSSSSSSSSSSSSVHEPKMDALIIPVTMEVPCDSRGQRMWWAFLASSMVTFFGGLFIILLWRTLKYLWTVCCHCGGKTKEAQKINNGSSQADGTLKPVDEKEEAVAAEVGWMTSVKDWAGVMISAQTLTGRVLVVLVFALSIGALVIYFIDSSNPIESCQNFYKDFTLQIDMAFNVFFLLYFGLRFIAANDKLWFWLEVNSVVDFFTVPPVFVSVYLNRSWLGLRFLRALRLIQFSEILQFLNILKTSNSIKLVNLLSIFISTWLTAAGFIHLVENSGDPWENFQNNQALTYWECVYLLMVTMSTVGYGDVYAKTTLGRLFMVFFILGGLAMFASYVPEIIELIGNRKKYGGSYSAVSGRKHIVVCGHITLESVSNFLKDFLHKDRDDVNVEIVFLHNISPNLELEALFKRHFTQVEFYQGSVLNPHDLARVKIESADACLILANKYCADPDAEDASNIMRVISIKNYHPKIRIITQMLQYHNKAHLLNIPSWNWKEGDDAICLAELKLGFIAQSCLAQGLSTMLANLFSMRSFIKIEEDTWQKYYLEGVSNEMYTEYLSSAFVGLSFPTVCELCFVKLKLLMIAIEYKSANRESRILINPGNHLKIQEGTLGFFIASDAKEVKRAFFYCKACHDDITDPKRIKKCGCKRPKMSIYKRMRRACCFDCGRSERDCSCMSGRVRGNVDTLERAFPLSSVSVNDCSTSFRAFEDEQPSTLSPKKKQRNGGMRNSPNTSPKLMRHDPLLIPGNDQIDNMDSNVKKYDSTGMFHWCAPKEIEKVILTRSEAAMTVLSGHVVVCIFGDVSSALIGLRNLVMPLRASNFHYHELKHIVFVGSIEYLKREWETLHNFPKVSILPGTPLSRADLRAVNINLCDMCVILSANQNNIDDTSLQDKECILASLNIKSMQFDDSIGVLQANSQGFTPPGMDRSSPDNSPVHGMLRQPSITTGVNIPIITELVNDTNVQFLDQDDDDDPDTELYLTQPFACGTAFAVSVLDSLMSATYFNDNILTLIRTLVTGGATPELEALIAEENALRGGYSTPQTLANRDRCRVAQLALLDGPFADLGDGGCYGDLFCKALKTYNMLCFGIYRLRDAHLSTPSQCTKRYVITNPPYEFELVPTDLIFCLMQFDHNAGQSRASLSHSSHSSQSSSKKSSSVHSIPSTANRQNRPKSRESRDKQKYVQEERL
# Method: (§1) FIG. 6. Slo-1/BKB3 forms BK type II-like charybdotoxin-(CTX) insensitive channels. Slo-1 (A) or Slo-1+BK beta 3 (B) were expressed in HEK293 cells and membrane currents measured using the whole-cell voltage-clamp technique. […]. In contrast, membrane currents in cells co-expressing Slo-1 and BK beta 3 were TEA (5 mM) sensitive but CTX (100 nM) insensitive (FIG. 6B). Similar recordings were made from 4 cells expressing Slo-1 alone and 6 cells co-expressing Slo-1/BKB3. Scale bars represent InA and 200 ms.
# Slo-1/BKB3 = target: T2, Slo-1/BKB3 (Homo sapiens, UniProt Q12791); experiment: Whole-cell voltage-clamp of membrane currents in HEK293 cells co-expressing Slo-1 and BK beta 3; format: cell-based; conditions: for sensitivity (block) of membrane currents: CTX 100 nM
# T2 construct: expressed in transfected cells; host or cells: HEK293
# T2 sequence (Q12791 whole entry): as above
# T2 sequence (Q86W47 whole entry partner): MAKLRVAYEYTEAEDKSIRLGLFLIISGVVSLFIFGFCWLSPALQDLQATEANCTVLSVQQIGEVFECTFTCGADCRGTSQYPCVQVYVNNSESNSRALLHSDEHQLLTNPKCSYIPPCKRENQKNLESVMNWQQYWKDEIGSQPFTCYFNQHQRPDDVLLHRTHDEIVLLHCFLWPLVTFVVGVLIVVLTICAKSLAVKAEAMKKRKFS
# Method: as §1
Compound,inhibition of membrane currents (Slo-1; TEA 5 mM),sensitivity of membrane currents (Slo-1/BKB3; TEA 5 mM),inhibition (block) of membrane currents (Slo-1),inhibition (block) of membrane currents (Slo-1; listed as charybdotoxin),sensitivity (block) of membrane currents (Slo-1/BKB3),sensitivity (block) of membrane currents (Slo-1/BKB3; listed as charybdotoxin)
CC[N+](CC)(CC)CC [TEA],strongly inhibited,sensitive,–,–,–,–
charybdotoxin [CTX],–,–,strongly inhibited,almost completely blocked,insensitive,virtually unblocked
